The record followed here is US20030108912, “Liver enriched transcription factor” (published 2003).

The data set concerns the target T1, HNF-4 Hph I truncation (Rattus norvegicus, UniProt P22449 SEQ:1-219).
T1 chain: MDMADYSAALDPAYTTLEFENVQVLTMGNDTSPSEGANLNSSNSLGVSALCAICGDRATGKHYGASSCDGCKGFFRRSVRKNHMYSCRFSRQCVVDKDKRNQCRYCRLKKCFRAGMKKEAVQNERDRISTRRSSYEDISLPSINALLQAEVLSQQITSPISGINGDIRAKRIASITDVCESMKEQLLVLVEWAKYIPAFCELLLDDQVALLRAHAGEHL
Briefly: EMSA; zinc fingers present, dimerization region absent. Particulars: label: 32P; four-base 5' overhangs. For orientation: A gel shift assay detects complexes by their altered migration in electrophoresis.

B1: APF1 (dsDNA)
DNA 1: TCGAGCGCTGGGCAAAGGTCACCTGC
DNA 2: GCAGGTGACCTTTGCCCAGCGCTCGA
Regarding B1, the binding result is given as “no binding”.
